Test results as given in article PMC7186176, “Structural basis of cell-surface signaling by a conserved sigma regulator in Gram-negative bacteria” (The Journal of Biological Chemistry, 2020).
Values belong to the binder of their own block, whether it stands above or below them.

B2: MBP-tagged PupR CCSSD (PupR residues 110–324) (domain or fragment, Pseudomonas capeferrum, UniProt Q52209 110-324, looked up)
chain: QDWRADYHSRIGEQRRLTLADGTQVQLNTDSALNVAFDQQARRLRLVRGEMLITRPALADSRPLWVDTEHGRLESTLAQFNVRLHGQHTQATVYQGSVALQPALHAYPPILLGAGEQASFNQQGLLARQAVAAVAPAWSQGMLVAQGQPLAAFIEDLARYRRGHLACDPALAGLRVSGTFPLENTDKIIAAVAETLQLEVQHFTRYWVTLKPRMA
notes: PupR, inner membrane sigma regulator of Pseudomonas capeferrum (formerly Pseudomonas putida WCS358), periplasmic CCSSD, residues 110-324; also called complete CCSSD; C-terminal cell-surface signaling domain; source: E. coli BL21(DE3)pLysS, co-expressed with GST-PupB NTSD, clarified lysate (pull-down); not shown: MBP, N-terminal, kept
B3: PupB NTSD (purified) (domain or fragment, Pseudomonas capeferrum, UniProt P38047 49-128, looked up)
chain: AQADFDIPAGPLAPALAHFGQSAHILLSYPTALTEGRSTSGLAGRFDIDQGLAILLAGTGLEASRGANASYSLQASASTG
notes: PupB, outer membrane TonB-dependent transducer of Pseudomonas capeferrum (formerly Pseudomonas putida WCS358), N-terminal signaling domain; also called N-terminal signaling domain of PupB

Assays:
Details in all cases: both partners purified
PupB NTSD (purified) [1] = target: B3; assay: SEC-SAXS; inline Superdex 200 Increase 10/300; 25 mM HEPES pH 7.5, 400 mM LiCl, 10% glycerol; 800 μM complex (1:1 mix, 30 min at room temperature) or 400 μM PupR CCSSD alone injected; ambient temperature
PupB NTSD (purified) [2] = target: B3; assay: ITC; MBP-tagged PupR CCSSD (220-235 μM) titrated into PupB NTSD (27.5-40 μM); 15 °C; 25 mM HEPES pH 7.5, 400 mM LiCl, 10% glycerol; global fit of three runs in SEDPHAT with a local incompetent fraction
PupB NTSD (purified) [3] = target: B3; assay: as above; remark: listed apart in the source
[4] = target: B2; assay: as above

stoichiometry N (PupB NTSD (purified) [1]): 1
B1: PupR CCSSD (PupR residues 110–324, MBP cleaved) (domain or fragment, Pseudomonas capeferrum)
chain: GAMGQDWRADYHSRIGEQRRLTLADGTQVQLNTDSALNVAFDQQARRLRLVRGEMLITRPALADSRPLWVDTEHGRLESTLAQFNVRLHGQHTQATVYQGSVALQPALHAYPPILLGAGEQASFNQQGLLARQAVAAVAPAWSQGMLVAQGQPLAAFIEDLARYRRGHLACDPALAGLRVSGTFPLENTDKIIAAVAETLQLEVQHFTRYWVTLKPRMA
notes: 4-residue cloning artifact left after TEV cleavage; PupR, inner membrane sigma regulator of Pseudomonas capeferrum (formerly Pseudomonas putida WCS358), periplasmic CCSSD, residues 110-324; 219-residue product with the GAMG artifact; About 90% pure, some MBP contamination; also called native PupR CCSSD; not shown: MBP, N-terminal, cleaved

Binder: B2
stoichiometry N (PupB NTSD (purified) [2]): 1 | dH (PupB NTSD (purified) [3]): -74 kJ/mol

Binder: B3
Kd [4]: 690 nM
